Results taken from patent US20160257760A1 (OXFORD BIOTHERAPEUTICS, published 2016).

Assays:
[1] = target: T1, RSFKALSI; assay: peptide microarray, 1 µg/mL LY75_A1, anti-human IgG Alexa 647
T1 peptide: RSFKALSI

[2] = target: T2, EVKDCRSF; assay: as above
T2 peptide: EVKDCRSF

[3] = target: T3, SLSCYKVF; assay: as above
T3 peptide: SLSCYKVF

[4] = target: T4, LSCYKVFH; assay: as above
T4 peptide: LSCYKVFH

[5] = target: T5, CYKVFHAE; assay: as above
T5 peptide: CYKVFHAE

[6] = target: T6, SLCQKYSE; assay: as above
T6 peptide: SLCQKYSE

[7] = target: T7, SERHFVSL; assay: as above
T7 peptide: SERHFVSL

[8] = target: T8, RHFVSLCQ; assay: as above
T8 peptide: RHFVSLCQ

[9] = target: T9, ERHFVSLC; assay: as above
T9 peptide: ERHFVSLC

[10] = target: T10, VSLCQKYS; assay: as above
T10 peptide: VSLCQKYS

[11] = target: T11, TSCSERHF; assay: as above
T11 peptide: TSCSERHF

[12] = target: T12, CQKYSEVK; assay: as above
T12 peptide: CQKYSEVK

[13] = target: T13, FVSLCQKY; assay: as above
T13 peptide: FVSLCQKY

[14] = target: T14, FTSCSERH; assay: as above
T14 peptide: FTSCSERH

[15] = target: T15, SCSERHFV; assay: as above
T15 peptide: SCSERHFV

[16] = target: T16, LCQKYSEV; assay: as above
T16 peptide: LCQKYSEV

[17] = target: T17, QKYSEVKS; assay: as above
T17 peptide: QKYSEVKS

[18] = target: T18, LY75 (DEC-205) on COLO205 cells (human, UniProt O60449 28-1722); assay: competitive FACS on COLO205 cells
T18 construct: Endogenous LY75 on COLO205 human colorectal adenocarcinoma cells; also called Lymphocyte antigen 75
T18 sequence (O60449 28-1722 limits assumed): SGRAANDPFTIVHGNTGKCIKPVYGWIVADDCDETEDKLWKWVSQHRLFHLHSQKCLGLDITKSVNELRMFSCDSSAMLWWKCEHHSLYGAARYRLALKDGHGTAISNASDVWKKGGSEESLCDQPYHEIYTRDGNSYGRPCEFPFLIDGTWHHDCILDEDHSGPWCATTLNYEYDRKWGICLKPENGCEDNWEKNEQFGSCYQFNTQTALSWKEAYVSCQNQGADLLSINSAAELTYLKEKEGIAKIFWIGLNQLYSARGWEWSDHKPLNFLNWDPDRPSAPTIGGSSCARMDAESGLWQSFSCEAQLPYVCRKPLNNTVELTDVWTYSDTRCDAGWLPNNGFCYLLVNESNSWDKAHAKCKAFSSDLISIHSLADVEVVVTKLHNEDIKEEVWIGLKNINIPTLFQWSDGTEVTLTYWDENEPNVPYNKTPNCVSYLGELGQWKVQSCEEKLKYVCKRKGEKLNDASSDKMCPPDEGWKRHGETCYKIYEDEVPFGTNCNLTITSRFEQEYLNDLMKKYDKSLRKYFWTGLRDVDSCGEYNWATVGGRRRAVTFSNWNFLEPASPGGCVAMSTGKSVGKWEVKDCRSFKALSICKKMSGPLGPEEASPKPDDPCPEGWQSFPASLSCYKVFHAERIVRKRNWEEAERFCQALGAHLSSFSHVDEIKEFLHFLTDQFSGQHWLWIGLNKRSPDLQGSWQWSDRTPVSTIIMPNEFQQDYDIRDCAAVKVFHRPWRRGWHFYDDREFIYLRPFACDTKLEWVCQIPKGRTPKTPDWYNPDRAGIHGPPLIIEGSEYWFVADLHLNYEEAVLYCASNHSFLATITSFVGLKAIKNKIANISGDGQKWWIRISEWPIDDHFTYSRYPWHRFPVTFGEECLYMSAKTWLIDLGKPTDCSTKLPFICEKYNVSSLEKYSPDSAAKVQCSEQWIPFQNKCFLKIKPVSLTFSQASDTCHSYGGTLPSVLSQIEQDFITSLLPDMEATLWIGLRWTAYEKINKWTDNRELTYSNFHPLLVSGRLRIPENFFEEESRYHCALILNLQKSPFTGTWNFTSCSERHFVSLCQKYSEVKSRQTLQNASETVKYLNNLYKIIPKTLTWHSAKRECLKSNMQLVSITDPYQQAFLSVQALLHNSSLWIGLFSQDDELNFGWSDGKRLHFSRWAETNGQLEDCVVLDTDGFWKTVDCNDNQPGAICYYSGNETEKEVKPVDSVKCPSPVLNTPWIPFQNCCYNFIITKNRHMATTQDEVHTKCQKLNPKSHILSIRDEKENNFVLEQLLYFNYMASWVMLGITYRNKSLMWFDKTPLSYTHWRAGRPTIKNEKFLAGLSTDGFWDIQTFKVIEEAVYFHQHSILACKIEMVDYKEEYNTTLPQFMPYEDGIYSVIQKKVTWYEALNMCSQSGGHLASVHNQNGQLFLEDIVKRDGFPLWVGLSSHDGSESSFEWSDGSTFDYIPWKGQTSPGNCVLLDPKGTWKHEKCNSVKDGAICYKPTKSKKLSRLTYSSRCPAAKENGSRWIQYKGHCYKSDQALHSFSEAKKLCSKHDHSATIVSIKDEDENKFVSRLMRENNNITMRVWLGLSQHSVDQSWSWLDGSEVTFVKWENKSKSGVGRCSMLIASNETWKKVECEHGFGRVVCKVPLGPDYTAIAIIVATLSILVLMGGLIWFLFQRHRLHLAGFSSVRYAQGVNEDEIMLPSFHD

[19] = target: Contiguous 8mer peptides of LY75 protein spanning residues 216 to 1666 of the full length LY75 protein (peptide microarray); assay: peptide microarray, 1 ug/mL LY75_A1, anti-human IgG Alexa 647, scan at 635 nm
[20] = target: T19, EAVYFHQH; assay: peptide microarray, 1 µg/mL LY75_A1, anti-human IgG Alexa 647
T19 peptide: EAVYFHQH

[21] = target: T20, VYFHQHSI; assay: as above
T20 peptide: VYFHQHSI

[22] = target: T21, AVYFHQHS; assay: as above
T21 peptide: AVYFHQHS

[23] = target: T22, YFHQHSIL; assay: as above
T22 peptide: YFHQHSIL

[24] = target: T23, CYKSDQAL; assay: as above
T23 peptide: CYKSDQAL

[25] = target: T24, RWIQYKGH; assay: as above
T24 peptide: RWIQYKGH

[26] = target: T25, YKSDQALH; assay: as above
T25 peptide: YKSDQALH

[27] = target: T26, NGSRWIQY; assay: as above
T26 peptide: NGSRWIQY

[28] = target: T27, HCYKSDQA; assay: as above
T27 peptide: HCYKSDQA

[29] = target: T28, WIQYKGHC; assay: as above
T28 peptide: WIQYKGHC

[30] = target: T29, QYKGHCYK; assay: as above
T29 peptide: QYKGHCYK

[31] = target: T30, SRWIQYKG; assay: as above
T30 peptide: SRWIQYKG

[32] = target: T31, YKGHCYKS; assay: as above
T31 peptide: YKGHCYKS

[33] = target: T32, KSDQALHS; assay: as above
T32 peptide: KSDQALHS

[34] = target: T33, GSRWIQYK; assay: as above
T33 peptide: GSRWIQYK

B1: LY75_A1 monoclonal antibody (antibody, V domains shown)
VH: EVQLVESGGGLVKPGGSLRLSCAASGFTYSNAWMSWVRQAPGKGLEWVGRIKSKTDGGTTDYAAPVQGRFTISRDDSKNTLYLQMNSLKTEDTAVYYCTIFGVVSFDYWGQGTLVTVSS
VL: DVQMTQSPSSLSASVGDRVTITCRASQSISDYLSWYQQRPGKAPNLLIYAASNLKTGVPSRFSGSGSGTDFTLTISTLQPEDFATYYCQQSYRSPWTFGQGTKVEIKR
notes: also called LY75A1 antibody; LY75_A1 antibody
B1: no binding (tested: 1 µg/mL) [1]; binds [2]; binds [3]. B1: binds [4]; no binding (tested: 1 µg/mL) [5]; no binding (tested: 1 µg/mL) [6]. B1: binds [7]; no binding (tested: 1 µg/mL) [8]; no binding (tested: 1 µg/mL) [9]. B1: binds [10]; binds [11]; no binding (tested: 1 µg/mL) [12]. B1: binds [13]; binds [14]; binds [15]. B1: no binding (tested: 1 µg/mL) [16]; no binding (tested: 1 µg/mL) [17]; binds [18]. For the same binder, the average signal for all spots on the array (signal intensity (scale 1-65535)) [19] was 885, the maximum signal intensity (signal intensity (scale 1-65535)) [19] was 25000 and the binding result [20] was “binds”. B1: binds [21]; binds [22]; binds [23]. B1: no binding (tested: 1 µg/mL) [24]; binds [25]; binds [26]. B1: binds [27]; no binding (tested: 1 µg/mL) [28]; no binding (tested: 1 µg/mL) [29]. B1: binds [30]; binds [31]; binds [32]. B1: no binding (tested: 1 µg/mL) [33]; binds [34].
